Series [1] deals with MIN6 cells. Briefly: Apoptosis assay (cleaved caspase 3 immunostaining). The format is cell-based. To be noted: 10 mM BME, 60 min incubation, n = 3 experiments. Here is the method:
For quantification of apoptosis, MIN6 cells were incubated with 10 mM BME for the indicated times and fixed in 4% paraformaldehyde. Immunostaining was performed using an antibody against Cleaved Caspase 3 (CC3; 1:400; #9661, Cell Signaling Technology), before secondary goat antirabbit Alexa Fluor 633 (1:1000) and Hoechst 33342 staining. Cells were imaged using a Zeiss LSM 880 confocal microscope, with excitation delivered at λ = 405 nm and λ = 633 nm. Emitted signals were collected at λ = 410–550 nm and λ = 641–695 nm for Hoechst 33342 and Alexa Fluor 633, respectively. Total area was quantified using the threshold plugin for Fiji, and results were expressed as the ratio CC3/Hoechst, as described.[69]

Series [2] has as its system MIN6 cells. Briefly: Necrosis assay (propidium iodide/calcein). The format is cell-based. To be noted: 10 mM BME, 60 min incubation. As for the experimental part:
For quantification of necrosis, MIN6 cells were labeled with 5 μM calcein-AM and 5 μM propidium iodide for 30 min. Cells were imaged in HEPES-bicarbonate buffer using the Crest X-Light spinning disk system, and excitation was performed at λ = 458–482 nm and λ = 543–558 nm for calcein and propidium iodide, respectively. Emitted signals were detected at λ = 500–550 nm and λ = 602–662 nm for calcein and propidium iodide, respectively. Total area was quantified using the threshold plugin for Fiji and expressed as the ratio propidium iodide/calcein, as described.[70]

Series [3] has as its target SNAP_GLP-1R (UniProt P43220).
Series [4] has as its target T1, human GHS-R1a (Homo sapiens, UniProt Q92847).
T1 construct: expressed in transfected cells; host or cells: HEK293T cells
Briefly: Inositol phosphate (IP-1) accumulation assay, IP-One HTRF. The format is cell-based. To be noted: HEK293T-GHS-R1a cells; mean ± SEM, n = 2 assays in triplicate. A general note: TR-FRET usually uses a lanthanide donor and a delayed reading to cut background.

Series [5] addresses T2, human GHS-R1a (human, UniProt Q92847 1-366). Briefly: cell-based or functional assay.
Series [6] concerns the target T2, human GHS-R1a. Briefly: AlphaScreen or HTRF; Tag-lite HTRF competition (Cisbio) on HEK293T-GHS-R1a cells; Ki calculated from binding curves; the labelled tracer is not named; as in ref. 72; n = 2 assays in triplicate. To be noted: one partner purified.

Where no end group is shown, it is not given here. Side-chain parts run from the residue outwards. The star is where a group is joined. PEG4 (disulfide) = PEG4 chain joined to the cysteine by a disulfide bond, carrying benzylguanine; benzylguanine = O6-benzylguanine; Octanoyl = CCCCCCCC(=O)*

This is an account of results in PMC5832994 (ACS Central Science, 2018).

T2 sequence (Q92847 whole entry): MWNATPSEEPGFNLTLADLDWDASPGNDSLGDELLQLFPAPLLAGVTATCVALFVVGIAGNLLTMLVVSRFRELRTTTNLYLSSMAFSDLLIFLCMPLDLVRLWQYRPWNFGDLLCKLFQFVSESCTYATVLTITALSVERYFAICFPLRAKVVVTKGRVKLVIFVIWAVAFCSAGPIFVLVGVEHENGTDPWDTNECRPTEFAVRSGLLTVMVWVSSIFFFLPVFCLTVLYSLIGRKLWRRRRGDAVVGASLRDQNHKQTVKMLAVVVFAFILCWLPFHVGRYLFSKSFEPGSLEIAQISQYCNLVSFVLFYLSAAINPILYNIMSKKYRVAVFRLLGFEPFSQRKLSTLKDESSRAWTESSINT
Sequence of SNAP_GLP-1R (P43220 whole entry): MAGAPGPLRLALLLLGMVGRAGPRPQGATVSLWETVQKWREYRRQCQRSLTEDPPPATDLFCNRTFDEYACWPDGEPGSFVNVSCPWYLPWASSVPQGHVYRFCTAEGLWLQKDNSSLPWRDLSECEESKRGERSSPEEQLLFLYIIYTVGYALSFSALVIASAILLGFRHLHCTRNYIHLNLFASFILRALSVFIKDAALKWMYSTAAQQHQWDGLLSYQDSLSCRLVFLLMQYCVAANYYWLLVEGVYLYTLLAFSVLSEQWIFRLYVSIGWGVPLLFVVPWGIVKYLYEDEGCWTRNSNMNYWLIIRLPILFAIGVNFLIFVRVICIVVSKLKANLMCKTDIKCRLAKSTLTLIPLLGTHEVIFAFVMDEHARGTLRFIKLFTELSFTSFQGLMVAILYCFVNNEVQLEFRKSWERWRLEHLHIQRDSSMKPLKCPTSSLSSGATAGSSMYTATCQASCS
T1 sequence (Q92847 whole entry): as the sequence (Q92847 whole entry) above

Turning to `OCCS` [BME, beta-mercaptoethanol], in series [1], the “apoptosis (cleaved caspase 3)” value was “did not display significant signs of necrosis (Figure S4a) or apoptosis”. For the same molecule, in series [2], the necrosis entry was “did not display significant signs of necrosis”.
In series [3], S39C-Ex4 (peptide) came in with an EC50 of cAMP accumulation (LANCE TR-FRET, 30 min) in YFP-AD293-SNAP GLP-1R cells of 0.0988 nM.
In series [4], `CCCCCCCC(=O)OC[C@H](NC(=O)[C@H](CO)NC(=O)CN)C(=O)N[C@@H](Cc1ccccc1)C(=O)N[C@@H](CC(C)C)C(=O)N[C@@H](CO)C(=O)N1CCC[C@H]1C(=O)N[C@@H](CCC(=O)O)C(=O)N[C@@H](Cc1c[nH]cn1)C(=O)N[C@@H](CCC(N)=O)C(=O)N[C@@H](CCCNC(=N)N)C(=O)N[C@H](C(=O)N[C@@H](CCC(N)=O)C(=O)N[C@@H](CCC(N)=O)C(=O)N[C@@H](CCCNC(=N)N)C(=O)N[C@@H](CCCCN)C(=O)N[C@@H](CCC(=O)O)C(=O)N[C@@H](CO)C(=O)N[C@@H](CCCCN)C(=O)N[C@@H](CCCCN)C(=O)N1CCC[C@H]1C(=O)N1CCC[C@H]1C(=O)N[C@@H](C)C(=O)N[C@@H](CCCCN)C(=O)N[C@@H](CC(C)C)C(=O)N[C@@H](CCC(N)=O)C(=O)N1CCC[C@H]1C(=O)N[C@@H](CCCNC(=N)N)C(=O)NCC(=O)NCC(=O)N[C@@H](CS)C(=O)NCC(=O)O)C(C)C` [ghrelinGGCG] showed an EC50 of 11.1 ± 0.4 nM.
For the molecule GSS(Octanoyl)FLSPEHQRVQQRKESKKPPAKLQPRGGC([PEG4 (disulfide)-benzylguanine])G [GhrelON], the “EC50 of IP-1 accumulation (IP-One HTRF kit) in HEK293T-GHS-R1a cells” value in series [5] was found to be 5.5 nM. Besides, the inhibition constant Ki in series [6] was 6.1 nM.
Taken in the same sequence, the figures for GSS(Octanoyl)FLSPEHQRVQQRKESKKPPAKLQPRGGCG [ghrelinGGCG] were 11.2 nM and 19.6 nM.

By EC50 is commonly meant the concentration at which the effect is half-maximal. As a reminder, the Ki is a measure of affinity in units of concentration, obtained from inhibition or displacement.
